# In patent publication US20180155451A1 (published 2018):
# Biological target: T1, FcγRIa extracellular domain with C-terminal His tag (human, UniProt P12314 16-292)
# T1 construct: extracellular domain; Expressed in FreeStyle293 cells; used as analyte in Biacore; also called FcgRI; 1a; not shown: His tag at the C terminus
# Test: SPR (Biacore), captured antibody, FcγRIa analyte; relative to GpH7-B3/GpL16-k0 = 100
# T1 sequence (P12314 16-292): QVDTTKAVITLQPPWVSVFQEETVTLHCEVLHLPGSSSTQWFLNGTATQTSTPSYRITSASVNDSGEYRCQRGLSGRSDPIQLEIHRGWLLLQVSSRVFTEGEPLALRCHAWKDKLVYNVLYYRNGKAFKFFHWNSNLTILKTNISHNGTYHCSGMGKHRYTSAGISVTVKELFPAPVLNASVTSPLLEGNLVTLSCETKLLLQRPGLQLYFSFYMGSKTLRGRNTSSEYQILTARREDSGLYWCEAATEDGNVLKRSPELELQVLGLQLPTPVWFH
row,Binder,Ho/Con_1a
1,"GpH7-B3 variant (I336_13S)/GpL16-k0 (antibody, human IgG1, kappa, Homodimerized; both H chains altered; also called Ho Ab I336_13S) heavy: not shown light: DIVMTQSPLSLPVTPGEPASISCQASESLVHSNRNTYLHWYLQKPGQSPQLLIYKVSNRFSGVPDRFSGSGSGTDFTLKISRVEAEDVGVYYCSQNTHVPPTFGQGTKVEIERTVAAPSVFIFPPSDEQLKSGTASVVCLLNNFYPREAKVQWKVDNALQSGNSQESVTEQDSKDSTYSLSSTLTLSKADYEKHKVYACEVTHQGLSSPVTKSFNRGEC",110 % of control
2,"GpH7-B3 variant (S337_20W)/GpL16-k0 (antibody, human IgG1, kappa, Homodimerized; both H chains altered; also called Ho Ab S337_20W) heavy: not shown light: DIVMTQSPLSLPVTPGEPASISCQASESLVHSNRNTYLHWYLQKPGQSPQLLIYKVSNRFSGVPDRFSGSGSGTDFTLKISRVEAEDVGVYYCSQNTHVPPTFGQGTKVEIERTVAAPSVFIFPPSDEQLKSGTASVVCLLNNFYPREAKVQWKVDNALQSGNSQESVTEQDSKDSTYSLSSTLTLSKADYEKHKVYACEVTHQGLSSPVTKSFNRGEC",104 % of control
3,"GpH7-B3 variant (T335_06M)/GpL16-k0 (antibody, human IgG1, kappa, Homodimerized; both H chains altered; also called Ho Ab T335_06M) heavy: not shown light: DIVMTQSPLSLPVTPGEPASISCQASESLVHSNRNTYLHWYLQKPGQSPQLLIYKVSNRFSGVPDRFSGSGSGTDFTLKISRVEAEDVGVYYCSQNTHVPPTFGQGTKVEIERTVAAPSVFIFPPSDEQLKSGTASVVCLLNNFYPREAKVQWKVDNALQSGNSQESVTEQDSKDSTYSLSSTLTLSKADYEKHKVYACEVTHQGLSSPVTKSFNRGEC",106 % of control
4,"GpH7-B3 variant (S337_19Q)/GpL16-k0 (antibody, human IgG1, kappa, Homodimerized; both H chains altered; also called Ho Ab S337_19Q) heavy: not shown light: DIVMTQSPLSLPVTPGEPASISCQASESLVHSNRNTYLHWYLQKPGQSPQLLIYKVSNRFSGVPDRFSGSGSGTDFTLKISRVEAEDVGVYYCSQNTHVPPTFGQGTKVEIERTVAAPSVFIFPPSDEQLKSGTASVVCLLNNFYPREAKVQWKVDNALQSGNSQESVTEQDSKDSTYSLSSTLTLSKADYEKHKVYACEVTHQGLSSPVTKSFNRGEC",105 % of control
5,"GpH7-B3 variant (T335_05P)/GpL16-k0 (antibody, human IgG1, kappa, Homodimerized; both H chains altered; also called Ho Ab T335_05P) heavy: not shown light: DIVMTQSPLSLPVTPGEPASISCQASESLVHSNRNTYLHWYLQKPGQSPQLLIYKVSNRFSGVPDRFSGSGSGTDFTLKISRVEAEDVGVYYCSQNTHVPPTFGQGTKVEIERTVAAPSVFIFPPSDEQLKSGTASVVCLLNNFYPREAKVQWKVDNALQSGNSQESVTEQDSKDSTYSLSSTLTLSKADYEKHKVYACEVTHQGLSSPVTKSFNRGEC",106 % of control
6,"GpH7-B3 variant (T335_09D)/GpL16-k0 (antibody, human IgG1, kappa, Homodimerized; both H chains altered; also called Ho Ab T335_09D) heavy: not shown light: DIVMTQSPLSLPVTPGEPASISCQASESLVHSNRNTYLHWYLQKPGQSPQLLIYKVSNRFSGVPDRFSGSGSGTDFTLKISRVEAEDVGVYYCSQNTHVPPTFGQGTKVEIERTVAAPSVFIFPPSDEQLKSGTASVVCLLNNFYPREAKVQWKVDNALQSGNSQESVTEQDSKDSTYSLSSTLTLSKADYEKHKVYACEVTHQGLSSPVTKSFNRGEC",107 % of control
7,"GpH7-B3 variant (S337_09D)/GpL16-k0 (antibody, human IgG1, kappa, Homodimerized; both H chains altered; also called Ho Ab S337_09D) heavy: not shown light: DIVMTQSPLSLPVTPGEPASISCQASESLVHSNRNTYLHWYLQKPGQSPQLLIYKVSNRFSGVPDRFSGSGSGTDFTLKISRVEAEDVGVYYCSQNTHVPPTFGQGTKVEIERTVAAPSVFIFPPSDEQLKSGTASVVCLLNNFYPREAKVQWKVDNALQSGNSQESVTEQDSKDSTYSLSSTLTLSKADYEKHKVYACEVTHQGLSSPVTKSFNRGEC",106 % of control
8,"GpH7-B3 variant (S337_10E)/GpL16-k0 (antibody, human IgG1, kappa, Homodimerized; both H chains altered; also called Ho Ab S337_10E) heavy: not shown light: DIVMTQSPLSLPVTPGEPASISCQASESLVHSNRNTYLHWYLQKPGQSPQLLIYKVSNRFSGVPDRFSGSGSGTDFTLKISRVEAEDVGVYYCSQNTHVPPTFGQGTKVEIERTVAAPSVFIFPPSDEQLKSGTASVVCLLNNFYPREAKVQWKVDNALQSGNSQESVTEQDSKDSTYSLSSTLTLSKADYEKHKVYACEVTHQGLSSPVTKSFNRGEC",104 % of control
9,"GpH7-B3 variant (T335_08L)/GpL16-k0 (antibody, human IgG1, kappa, Homodimerized; both H chains altered; also called Ho Ab T335_08L) heavy: not shown light: DIVMTQSPLSLPVTPGEPASISCQASESLVHSNRNTYLHWYLQKPGQSPQLLIYKVSNRFSGVPDRFSGSGSGTDFTLKISRVEAEDVGVYYCSQNTHVPPTFGQGTKVEIERTVAAPSVFIFPPSDEQLKSGTASVVCLLNNFYPREAKVQWKVDNALQSGNSQESVTEQDSKDSTYSLSSTLTLSKADYEKHKVYACEVTHQGLSSPVTKSFNRGEC",105 % of control

# Further lines, results first:
row,Ho/Con_1a,Binder
1,105 % of control,"GpH7-B3 variant (S337_08L)/GpL16-k0 (antibody, human IgG1, kappa, Homodimerized; both H chains altered; also called Ho Ab S337_08L) heavy: not shown light: DIVMTQSPLSLPVTPGEPASISCQASESLVHSNRNTYLHWYLQKPGQSPQLLIYKVSNRFSGVPDRFSGSGSGTDFTLKISRVEAEDVGVYYCSQNTHVPPTFGQGTKVEIERTVAAPSVFIFPPSDEQLKSGTASVVCLLNNFYPREAKVQWKVDNALQSGNSQESVTEQDSKDSTYSLSSTLTLSKADYEKHKVYACEVTHQGLSSPVTKSFNRGEC"
2,111 % of control,"GpH7-B3 variant (I336_14T)/GpL16-k0 (antibody, human IgG1, kappa, Homodimerized; both H chains altered; also called Ho Ab I336_14T) heavy: not shown light: DIVMTQSPLSLPVTPGEPASISCQASESLVHSNRNTYLHWYLQKPGQSPQLLIYKVSNRFSGVPDRFSGSGSGTDFTLKISRVEAEDVGVYYCSQNTHVPPTFGQGTKVEIERTVAAPSVFIFPPSDEQLKSGTASVVCLLNNFYPREAKVQWKVDNALQSGNSQESVTEQDSKDSTYSLSSTLTLSKADYEKHKVYACEVTHQGLSSPVTKSFNRGEC"
3,104 % of control,"GpH7-B3 variant (S337_15Y)/GpL16-k0 (antibody, human IgG1, kappa, Homodimerized; both H chains altered; also called Ho Ab S337_15Y) heavy: not shown light: DIVMTQSPLSLPVTPGEPASISCQASESLVHSNRNTYLHWYLQKPGQSPQLLIYKVSNRFSGVPDRFSGSGSGTDFTLKISRVEAEDVGVYYCSQNTHVPPTFGQGTKVEIERTVAAPSVFIFPPSDEQLKSGTASVVCLLNNFYPREAKVQWKVDNALQSGNSQESVTEQDSKDSTYSLSSTLTLSKADYEKHKVYACEVTHQGLSSPVTKSFNRGEC"
4,105 % of control,"GpH7-B3 variant (S337_07I)/GpL16-k0 (antibody, human IgG1, kappa, Homodimerized; both H chains altered; also called Ho Ab S337_07I) heavy: not shown light: DIVMTQSPLSLPVTPGEPASISCQASESLVHSNRNTYLHWYLQKPGQSPQLLIYKVSNRFSGVPDRFSGSGSGTDFTLKISRVEAEDVGVYYCSQNTHVPPTFGQGTKVEIERTVAAPSVFIFPPSDEQLKSGTASVVCLLNNFYPREAKVQWKVDNALQSGNSQESVTEQDSKDSTYSLSSTLTLSKADYEKHKVYACEVTHQGLSSPVTKSFNRGEC"
5,105 % of control,"GpH7-B3 variant (T335_07I)/GpL16-k0 (antibody, human IgG1, kappa, Homodimerized; both H chains altered; also called Ho Ab T335_07I) heavy: not shown light: DIVMTQSPLSLPVTPGEPASISCQASESLVHSNRNTYLHWYLQKPGQSPQLLIYKVSNRFSGVPDRFSGSGSGTDFTLKISRVEAEDVGVYYCSQNTHVPPTFGQGTKVEIERTVAAPSVFIFPPSDEQLKSGTASVVCLLNNFYPREAKVQWKVDNALQSGNSQESVTEQDSKDSTYSLSSTLTLSKADYEKHKVYACEVTHQGLSSPVTKSFNRGEC"
6,105 % of control,"GpH7-B3 variant (S337_04F)/GpL16-k0 (antibody, human IgG1, kappa, Homodimerized; both H chains altered; also called Ho Ab S337_04F) heavy: not shown light: DIVMTQSPLSLPVTPGEPASISCQASESLVHSNRNTYLHWYLQKPGQSPQLLIYKVSNRFSGVPDRFSGSGSGTDFTLKISRVEAEDVGVYYCSQNTHVPPTFGQGTKVEIERTVAAPSVFIFPPSDEQLKSGTASVVCLLNNFYPREAKVQWKVDNALQSGNSQESVTEQDSKDSTYSLSSTLTLSKADYEKHKVYACEVTHQGLSSPVTKSFNRGEC"
7,102 % of control,"GpH7-B3 variant (S337_06M)/GpL16-k0 (antibody, human IgG1, kappa, Homodimerized; both H chains altered; also called Ho Ab S337_06M) heavy: not shown light: DIVMTQSPLSLPVTPGEPASISCQASESLVHSNRNTYLHWYLQKPGQSPQLLIYKVSNRFSGVPDRFSGSGSGTDFTLKISRVEAEDVGVYYCSQNTHVPPTFGQGTKVEIERTVAAPSVFIFPPSDEQLKSGTASVVCLLNNFYPREAKVQWKVDNALQSGNSQESVTEQDSKDSTYSLSSTLTLSKADYEKHKVYACEVTHQGLSSPVTKSFNRGEC"
